From the supplement of paper PMC9170038

Tested on: MS2 coat protein
Assay: apparent KD of MS2 coat protein; designed switch direction (-1 OFF switch, 1 ON switch): -1; higher = weaker reporter binding
How it was run: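 The apparent KD reported per design is the median over clusters of curve fits to normalised cluster fluorescence. The RNA switches were transcribed on Illumina chips by stalled E. coli RNA polymerase. SNAP-549-labelled MS2 coat protein was titrated from 0.7 or 1.5 nM, doubling up to 3 µM, in Tris-HCl pH 7.5 buffer containing KCl, MgCl2, BSA, DTT, tRNA and Tween-20, with no input, 200 uM small-molecule ligand, or an oligonucleotide input.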

[1] = Eterna round: R95, input ligand: FMN 200 uM
[2] = Eterna round: R95, input ligand: microRNA oligo, concentration not stated
[3] = Eterna round: R95, input ligand: none
[4] = input ligand: microRNA oligo, concentration not stated

“CUUGUAAAUGUGAGGAUAUACUGUUAGUAAAGUUAGUAGAAGGUACAUGAGGAUCACCCAUGUUAAUUACUCUA [JR_BME4_Sub047] (puzzle: Brourd's mod of Exclusion 4)” was tested, and the “apparent KD of MS2 coat protein” value [1] was 15.9 nM, the “apparent KD of MS2 coat protein” value [2] was 13.2 nM and the “apparent KD of MS2 coat protein” value [3] was 14.5 nM.

For “CCAUCGAGUGUGAGGAUAUGCUGGUCCAUAGAUCAGCAGAAGGCACAUGAGGAUCACCCAUGUGGAGACGGUGG [Mat - Exclusion 4 - JL Mod - D78] (puzzle: Brourd's mod of Exclusion 4)”, the “apparent KD of MS2 coat protein” value [1] was 418 nM, the “apparent KD of MS2 coat protein” value [2] was 34.4 nM and the “apparent KD of MS2 coat protein” value [3] was 36.6 nM.

With “CGUGACUCAGGAUAUUCAUAAUAUCACAUGAGGAUCACCCAUGUCCAGCGAAAGCUGGAGGGAGAAGGGAGUCACG [Fiskers Ex 5 - 37] (puzzle: Exclusion 5)” the “apparent KD of MS2 coat protein” value [1] was 56.7 nM, the “apparent KD of MS2 coat protein” value [2] was 151 nM and the “apparent KD of MS2 coat protein” value [3] was 99.6 nM.

For “ACAUGAGGAUCACCCAUGUACACGUAAUGGCUCAUGUAGAGUCAGGAUAUGCGUGGCGAACUCGCGCAGAAGGGACAAGACUGG [Deportation 21 - Jieux - Exclusion NG 3] (Eterna round: R96, puzzle: Exclusion NG 3)”, the “apparent KD of MS2 coat protein” value (input ligand: FMN 200 uM) was 27.1 nM, the “apparent KD of MS2 coat protein” value [4] was 18.6 nM and the “apparent KD of MS2 coat protein” value (input ligand: none) was 23 nM.

For “CUCAUGUGAGGAUAUAGUGCGUCUUCUAUUAUUAUUGAGUACUAGAAGGCACAUGAGGAUCACCCAUGUAGCAC [Ex4 - 3 - 45] (puzzle: Exclusion 4)”, the “apparent KD of MS2 coat protein” value [2] was 41.9 nM.

In the case of “UCAAUUAUGACAGGAUAUAGUUUUUGUUUUUCUCUAGAAGGGUCUAUGCACAUGAGGAUCACCCAUGUUCUUUUUAUUUGCAUU [JR_ExcNG1_Sub016] (Eterna round: R96, puzzle: Exclusion NG 1)”, the “apparent KD of MS2 coat protein” value (input ligand: FMN 200 uM) was 47.5 nM, the “apparent KD of MS2 coat protein” value [4] was 46.1 nM and the “apparent KD of MS2 coat protein” value (input ligand: none) was 70.9 nM.

With “AGCGGGUUAGGAUAUACCUGGGUAUGAAAAGCCUAACCUCGACAUGAGGAUCACCCAUGUAGAAGGAGCUCGGC [Eternabot (Original) Solution 3] (Eterna round: R97, puzzle: Exclusion 2)” the “apparent KD of MS2 coat protein” value (input ligand: FMN 200 uM) was 91 nM and the “apparent KD of MS2 coat protein” value (input ligand: none) was 36.9 nM.

“UCAGGUGCAGGAUAUACAUGAGGAUCACCCAUGUAGAUCAACCAGCGAUAGCUGGAAUGUAGAAGGGCACCUGA [E3/5-D2] (Eterna round: R97, puzzle: Exclusion 3)” was tested, and the “apparent KD of MS2 coat protein” value (input ligand: FMN 200 uM) was 100 nM and the “apparent KD of MS2 coat protein” value (input ligand: none) was 19.7 nM.

With “UUAUAACAUGAGGAUCACCCAUGUUAGGAUAUCGCAGUAAGCUUCAGUAAUGAGCAUUCGAGAAGGAACGGGUA [Eternabot (L2) Solution 63] (Eterna round: R97, puzzle: Exclusion 1)” the “apparent KD of MS2 coat protein” value (input ligand: FMN 200 uM) was 22 nM and the “apparent KD of MS2 coat protein” value (input ligand: none) was 22 nM.

With “CGUGUCUUUCACGUGAGUGGUGGGUGCAACAGGUGGGAAACAUGAGGAUCACCCAUGUCCUCACUUGCUCGUCUUUU [Grok-var2-03] (puzzle: Sensor v3, turn-off variant 2)” the “apparent KD of MS2 coat protein” value [1] was 27.1 nM, the “apparent KD of MS2 coat protein” value [2] was 109 nM and the “apparent KD of MS2 coat protein” value [3] was 26.1 nM.

In the case of “AUUUUAGAAGGAUAUUGACCGGUGGACAUGAGGAUCACCCAUGUCGUCCUGCCCAUUCCGUAAGAAGGUCUAGCGU [Eternabot (L1) Solution 96] (Eterna round: R97, puzzle: Exclusion 5)”, the “apparent KD of MS2 coat protein” value (input ligand: FMN 200 uM) was 23.7 nM and the “apparent KD of MS2 coat protein” value (input ligand: none) was 24.8 nM.

With “AAAAGUCUUUAGGAUAUGUGCGAUUAAUAUCGUGCAGAAGGAAGGACAUGAGGAUCACCCAUGUUGAAGACAAC [Omei Ex6 A19] (Eterna round: R97, puzzle: Exclusion 6)” the “apparent KD of MS2 coat protein” value (input ligand: FMN 200 uM) was 51.1 nM and the “apparent KD of MS2 coat protein” value (input ligand: none) was 22.1 nM.

For “AGUACUAUCACGAAAGUGAUAGUACAAAAAGCAAGUGAAACAUGAGGAUCACCCAUGUCCUCAUUUGCUCGUCUUAU [JL turnoff v2 99] (Eterna round: R96, puzzle: Sensor v2, turn-off variant 2)”, the “apparent KD of MS2 coat protein” value (input ligand: FMN 200 uM) was 12.2 nM, the “apparent KD of MS2 coat protein” value [4] was 375 nM and the “apparent KD of MS2 coat protein” value (input ligand: none) was 14.4 nM.

In the case of “UAUUAGCAAGCGAGAUCCCACAUGAGGAUCACCCAUGUGCUCGUCUUAUAAAGUACUGUGACGAUAGUCACGGUACA [Mat - Sensor, turn-off var - Eli Mod - D8] (Eterna round: R97, puzzle: Sensor, turn-off variant 1)”, the “apparent KD of MS2 coat protein” value (input ligand: FMN 200 uM) was 16.6 nM and the “apparent KD of MS2 coat protein” value (input ligand: none) was 15.6 nM.

For “AGUCGGCGAGGAUAUACAUGAGGAUCACCCAUGUGAUAGAGUGCACGCGUACGUGUACGUAGAAGGCGCUGACA [Mat - Exclusion 3 - Mod of JL D95] (puzzle: Exclusion 3)”, the “apparent KD of MS2 coat protein” value [2] was 12.6 nM.

In the case of “UAUUAUCAAGCAAGAUCCUACAUGAGGAUCACCCAUGUGCUCGUCUUAUAAGGUACUGUGACGAAAGUCACGGUACC [Sensor 3, v1 - 73] (puzzle: Sensor v3, turn-off variant 1)”, the “apparent KD of MS2 coat protein” value [1] was 107 nM, the “apparent KD of MS2 coat protein” value [2] was 107 nM and the “apparent KD of MS2 coat protein” value [3] was 153 nM.
